Numbering of substitutions follows the chain as printed. Numbers in names are those of the source.
T1: TNFR1 (Homo sapiens, UniProt P19438)
T1 chain: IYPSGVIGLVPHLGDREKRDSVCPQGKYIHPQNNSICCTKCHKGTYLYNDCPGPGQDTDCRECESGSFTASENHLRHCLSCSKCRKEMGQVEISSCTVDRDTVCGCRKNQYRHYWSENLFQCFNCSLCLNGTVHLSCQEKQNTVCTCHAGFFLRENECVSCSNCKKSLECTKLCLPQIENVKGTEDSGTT

B1: K103M (designed binder)
chain: MTLQELLREEALRRAEAEAFRYALELLAEKFPEQKEYLLDLAEEIESQIRSLSGVDVEDVRKFLDKEWAWVKELLAEHPAELAEVEAARAARLAELRAEVEAMVAA
B2: E18G (designed binder)
chain: B1 chain with E18G, M103K
B3: A23G (designed binder)
chain: B1 chain with A23G, M103K
B4: E16C (designed binder)
chain: B1 chain with E16C, M103K
B5: V60L (designed binder)
chain: B1 chain with V60L, M103K
B6: R13D (designed binder)
chain: B1 chain with R13D, M103K
B7: L82K (designed binder)
chain: B1 chain with L82K, M103K
B8: A91C (designed binder)
chain: B1 chain with A91C, M103K
B9: L6G (designed binder)
chain: B1 chain with L6G, M103K
B10: R14L (designed binder)
chain: B1 chain with R14L, M103K
B11: A88G (designed binder)
chain: B1 chain with A88G, M103K
B12: V71L (designed binder)
chain: B1 chain with V71L, M103K
B13: A102I (designed binder)
chain: B1 chain with A102I, M103K
B14: L26Y (designed binder)
chain: B1 chain with L26Y, M103K
B15: F31N (designed binder)
chain: B1 chain with F31N, M103K
B16: K66Q (designed binder)
chain: B1 chain with K66Q, M103K
B17: Y37C (designed binder)
chain: B1 chain with Y37C, M103K
B18: L6M (designed binder)
chain: B1 chain with L6M, M103K
B19: L27M (designed binder)
chain: B1 chain with L27M, M103K
B20: F63H (designed binder)
chain: B1 chain with F63H, M103K
B21: F20W (designed binder)
chain: B1 chain with F20W, M103K
B22: A11V (designed binder)
chain: B1 chain with A11V, M103K
B23: H78E (designed binder)
chain: B1 chain with H78E, M103K
B24: L38G (designed binder)
chain: B1 chain with L38G, M103K
B25: A42V (designed binder)
chain: B1 chain with A42V, M103K
B26: F20V (designed binder)
chain: B1 chain with F20V, M103K
B27: E16V (designed binder)
chain: B1 chain with E16V, M103K
B28: L6I (designed binder)
chain: B1 chain with L6I, M103K
B29: E84S (designed binder)
chain: B1 chain with E84S, M103K
B30: L27G (designed binder)
chain: B1 chain with L27G, M103K
B31: E46L (designed binder)
chain: B1 chain with E46L, M103K
B32: A11P (designed binder)
chain: B1 chain with A11P, M103K
B33: A76Q (designed binder)
chain: B1 chain with A76Q, M103K
B34: V71Y (designed binder)
chain: B1 chain with V71Y, M103K
B35: E99D (designed binder)
chain: B1 chain with E99D, M103K
B36: L82R (designed binder)
chain: B1 chain with L82R, M103K
B37: R50A (designed binder)
chain: B1 chain with R50A, M103K
B38: A102F (designed binder)
chain: B1 chain with A102F, M103K
B39: R92G (designed binder)
chain: B1 chain with R92G, M103K
B40: A106S (designed binder)
chain: B1 chain with M103K, A106S
B41: A69Y (designed binder)
chain: B1 chain with A69Y, M103K
B42: E86S (designed binder)
chain: B1 chain with E86S, M103K
B43: A105Y (designed binder)
chain: B1 chain with M103K, A105Y
B44: L7W (designed binder)
chain: B1 chain with L7W, M103K
B45: A69P (designed binder)
chain: B1 chain with A69P, M103K
B46: E16R (designed binder)
chain: B1 chain with E16R, M103K
B47: R92P (designed binder)
chain: B1 chain with R92P, M103K
B48: R92S (designed binder)
chain: B1 chain with R92S, M103K
B49: S53C (designed binder)
chain: B1 chain with S53C, M103K
B50: A83H (designed binder)
chain: B1 chain with A83H, M103K
B51: A11S (designed binder)
chain: B1 chain with A11S, M103K
B52: W68H (designed binder)
chain: B1 chain with W68H, M103K
B53: K72N (designed binder)
chain: B1 chain with K72N, M103K
B54: V104F (designed binder)
chain: B1 chain with M103K, V104F
B55: E73A (designed binder)
chain: B1 chain with E73A, M103K
B56: A28R (designed binder)
chain: B1 chain with A28R, M103K
B57: K35A (designed binder)
chain: B1 chain with K35A, M103K
B58: V71F (designed binder)
chain: B1 chain with V71F, M103K
B59: L3S (designed binder)
chain: B1 chain with L3S, M103K

Target: T1, TNFR1
Assay: yeast display SC50

apparent Kd (screen) [nM]	Binder
0.718	B1
0.49	B2
0.49	B3
0.593	B4
0.593	B5
1.69	B6
2.48	B7
0.593	B8
22.2	B9
0.956	B10
0.79	B11
0.593	B12
0.956	B13
0.593	B14
0.593	B15
0.653	B16
3	B17
1.86	B18
0.593	B19
6.43	B20

apparent Kd (screen) [nM]	Binder
4.83	B21
0.49	B22
0.653	B23
24.4	B24
0.718	B25
0.49	B26
0.446	B27
0.539	B28
0.653	B29
0.539	B30
0.539	B31
2.25	B32
0.446	B33
2.48	B34
0.539	B35
1.86	B36
0.539	B37
0.653	B38
0.593	B39
0.653	B40

apparent Kd (screen) [nM]	Binder
1.05	B41
0.869	B42
0.79	B43
24.4	B44
16.7	B45
2.05	B46
2.25	B47
0.653	B48
24.4	B49
0.539	B50
0.956	B51
2.73	B52
0.539	B53
0.539	B54
0.593	B55
12.5	B56
1.27	B57
1.69	B58
15.2	B59
